# Where “and” joins values, the source holds several entries; their conditions need not be identical. Equal values may be shown once.
# B1: 39S: lead optimized monoclonal antibody derived from the 1.39.1 antibody; VH SEQ ID NO:15, VL SEQ ID NO:16 (antibody, V domains shown)
# VH: EVQLVESGGGLVKPGGSLRLSCAASGFTFSSYSMSWVRQAPGKGLEWVSSISSSSSYIYYADSVKGRFTISRDNAKNSLYLQMNSLRAEDTAVYYCARGGDAYNYYYFDYWGQGTLVTVSS
# VL: DIVMTQTPLSLSVTPGQPASISCKSSQSVFFRSNNKNILAWYLQKPGQPPQLLIYWASSRESGVPDRFSGSGSGTDFTLKISRVEAEDVGVYYCQQYFGSPFTFGPGTKVDIK
# Columns and labels:
# Experiment in all cases: ProteOn SPR binding of 39S to captured chimeric Her2 variants
# [1] = biological target: T1, chimeric human/mouse Her2 variants (Homo sapiens, UniProt P04626, H318N/L317P); details: variant KO_295-296
# T1 construct: His tag; made in house; host or cells: HEK293F (transient, pEBNA vector; captured from culture supernatant)
# Source text: (§1) The domain II of human HER2 was identified as the epitope of 39S by swapping domains between human and mouse Her2 molecules. Mouse Her2 was chosen as the chimeric partner because it is not recognized by 39S, but shares 85% sequence identity with human HER2. Chimeric variants targeting each domain of HER2 were constructed (see method below) as listed in Table 4, including four knock-out (KO, loss-of-function) variants replacing domain I, II, III, or IV of human HER2 with the mouse counterpart, and one knock-in (KI, gain-of-function) variant grafting the domain II of human HER2 into mouse Her2 molecule. The chimeric variant nomenclature denotes types of variants (KO/KI) and the number of domains swapped. The binding profiles of 39S to these variants were characterized using a SPR based instrument ProteOn™ by capturing variants on sensor surfaces using anti-human and mouse Her2 polyclonal antibodies (see method below). The expression of the variants was monitored by anti-His polyclonal antibody using ProteOn™. […] Therefore, the domain II (amino acid 146-310) of human HER2 was identified as the epitope-containing domain of 39S by both loss-of-function and gain-of-function variants.
# (§2) We further refined the epitope of 39S and identified the region of amino acid 192-208 in domain II as the critical epitope region. […] Seven knock-out variants were generated by replacing each of the following human HER2 regions with the mouse counterparts, including amino acids 146-208, 159-162, 171-187, 192-208, 250-261, 276-285, and 295-296. In addition, one knock-in variant was constructed by grafting the region of amino acid 192-208 of human HER2 to the mouse molecule. The variant nomenclature denotes types of variants (KO/KI) and the swapped regions with amino acid numbering. All variants had detectable expression levels by anti-His polyclonal antibody (Table 4). […] The binding of 39S was not impacted when substituting any other regions of human HER2 with mouse amino acids (KO_159-162, KO_171-187, KO_250-261, KO_276-285, and KO_295-296). […] Taken together, the region of amino acid 192-208 in domain II of human HER2 was identified as the functional epitope of 39S.
# (§3) The variant nomenclature denotes types of variants (KO/KI) and the swapped regions with amino acid numbering. Amino acid positions were denoted basing on the numbering scheme of mature human HER2 sequences without its signal peptide. The expression levels of all variants were monitored by an anti-His polyclonal antibody. The binding profiles of 39S to these variants were characterized using a SPR based instrument ProteOn™ by capturing variants on sensor surfaces using anti-human and mouse Her2 polyclonal antibodies.
# (§4) Construction and expression of chimeric human/mouse Her2 variants were constructed as follows. Briefly, DNAs encoding chimeric human/mouse Her2 variants with a His tag were assembled and amplified by overlapping PCR using human and mouse Her2 plasmids as templates (MedImmune). The assembled DNAs were cloned into the mammalian expression vector pEBNA (MedImmune). HEK293F cells were then transiently transfected with the various constructs using 293fectin and standard protocols according to the manufacturer's instructions (Invitrogen).
# (§5) The binding characteristics of 39S to chimeric human/mouse variants were studied using a ProteOn™ XPR36 instrument (BioRad). Standard amine coupling was used to immobilize an anti-human or mouse Her2 polyclonal antibody (R&D System) in 10 mM sodium acetate (pH 5.0) to the surface of a GLC biosensor chip at ˜5000 resonance units (RU) for each channel. The chimeric proteins in cell culture supernatant were injected and captured by anti-human or mouse polyclonal antibodies onto the GLC surface with a ˜200RU response. Anti-HER2 mAb 39S was diluted in phosphate-buffered saline (PBS) (pH 7.4) with 0.005% Tween-20 from 10 nM to 0.625 nM (1:2 dilution), and injected at 100 μL/min for 180 sec with a 600-second dissociation time. […]
# [2] = biological target: T2, chimeric human/mouse Her2 variants (Homo sapiens, UniProt P04626, P283L/V272I); details: variant KO_250-261
# T2 construct: His tag; made in house; host or cells: HEK293F (transient, pEBNA vector; captured from culture supernatant)
# Source text: as §1, §2, §3, §4, §5
# [3] = biological target: T3, chimeric human/mouse Her2 variants (Homo sapiens, UniProt P04626, A221T/A298T/D307E/F173L/G201D/G222S/H174R/H193P/H318N/I172V/I184M/L181P/L183D/L317P/M198T/P230R/P283L/R203H/R217G/S196A/S202N/S209P/S214I/T182V/V219I/V272I); details: variant KO_II, swapped amino acids 146-310
# T3 construct: His tag; made in house; host or cells: HEK293F (transient, pEBNA vector; captured from culture supernatant)
# Source text: as §1, §2, §3, §4, §5
# [4] = biological target: T4, chimeric human/mouse Her2 variants (Mus musculus, UniProt P70424, A197S/D184L/D202G/E308D/G218R/H204R/I215S/I220V/I273V/L174F/L284P/M185I/N203S/N319H/P182L/P194H/P210S/P318L/R175H/R231P/S223G/T199M/T222A/T299A/V173I/V183T); details: variant KI_II, human amino acids 146-310 grafted into mouse Her2; read-out: The binding affinity of 39S (KD)
# T4 construct: His tag; made in house; host or cells: HEK293F (transient, pEBNA vector; captured from culture supernatant)
# Source text: as §1, §2, §3, §4, §5
# [5] = biological target: T5, chimeric human/mouse Her2 variants (Mus musculus, UniProt P70424, G218R/I215S/I220V/R231P/S223G/T222A); details: variant KI_192-208, human amino acids 192-208 grafted into mouse Her2; read-out: The binding affinity of 39S (KD)
# T5 construct: His tag; made in house; host or cells: HEK293F (transient, pEBNA vector; captured from culture supernatant)
# Source text: as §1, §2, §3, §4, §5
# [6] = biological target: T6, chimeric human/mouse Her2 variants (Homo sapiens, UniProt P04626, A298T/D307E); details: variant KO_276-285
# T6 construct: His tag; made in house; host or cells: HEK293F (transient, pEBNA vector; captured from culture supernatant)
# Source text: as §1, §2, §3, §4, §5
# [7] = biological target: T7, chimeric human/mouse Her2 variants (Homo sapiens, UniProt P04626, A221T/G222S/P230R/R217G/S214I/V219I); details: variant KO_192-208
# T7 construct: His tag; made in house; host or cells: HEK293F (transient, pEBNA vector; captured from culture supernatant)
# Source text: as §1, §2, §3, §4, §5
molecule,measurement,setting,value
B1,The binding affinity of 39S (KD),[1],not impacted
same,The binding affinity of 39S (KD),[2],not impacted
same,The binding affinity of 39S (KD),[3],did not bind and No
same,Kd,[4],0.168 nM and 0.163 nM
same,Kd,[5],0.072 nM
same,The binding affinity of 39S (KD),[6],not impacted
same,The binding affinity of 39S (KD),[7],did not bind and No

# — patent publication US10160812B2, “Bispecific HER2 antibodies” (MedImmune, LLC, priority 2014, dated 2018)
